Like-named read-outs stand apart in the source and are kept apart here.
Tests used:
Assay in all cases: NMR titration
[1] = molecular target: T1, Sds3 capped Tudor domain (CTD) (mouse, UniProt Q8BR65 250-326)
T1 sequence: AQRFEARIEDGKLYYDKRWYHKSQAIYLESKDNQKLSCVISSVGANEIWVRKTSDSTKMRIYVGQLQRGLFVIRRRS

[2] = molecular target: T1, Sds3 capped Tudor domain (CTD); remark: listed apart in the source
[3] = molecular target: T1, Sds3 capped Tudor domain (CTD); remark: listed apart in the source

**Q.** Does TGTGGTT (ssDNA) [SELEX 7mer motif] bind [1]?
**A.** no binding

**Q.** Does TTGGGG (structured_DNA) [T2G4] bind [2]?
**A.** binds

**Q.** Does AACUGUCG (ssRNA) [random RNA 8mer] bind [3]?
**A.** no binding
